# Reference: patent US20080280313
# B1: FLAGTgCKIβ, N-terminal FLAG epitope tagged Toxoplasma gondii casein kinase I beta (protein)
# chain: AHHQDTRNHTGVGPSSSIPLKDLKIAGVWKIGRKIGSGSFGDIYKGLNSQTGQEVALKVESTKAKHPQLLYEYKLLKHLQGGTGIAQVFCCETAGDHNIMAMELLGPSLEDVFNLCNRTFSLKTILLLADQFLQRVEYIHSKNFIHRDIKPDNFLLGGAGNQNTIYVIDFGLAKKFRDPKTHQHIPYRENKNLTGTARYASISAHLGSEQSRRDDLEAVGYVLMYFCRGGTLPWQGIKANTKQEKYHKIMEKKMSTPVEVLCKGYPSEFATYLHYCRSLRFEDRPDYAYLKRLFRDLYIKEGYDDSDREFDWTVKLSSRSLGPPSSRAQHVLLSQDTRTRGKRETDRPVAARSGDRERGIHFSNGNVGNPSMATNPGGLSVMVHERTSLVDQGDRGSRETSTRKEDAKDGRWPGGRFSCLPLLCRRSPTKA
# B2: native EtCKIα, partially purified from Eimeria tenella unsporulated oocysts (protein)
# chain: MDVRVGGKYRLGRKIGSGSFGDIYLGTNISTGDEVAIKLESVRSRHPQLIYESKLYKILTGGIGIPTLYWYGIEGDYNVMIIELLGPSLEDLFSICNRKLSLKTVLMLADQMLNRIEFVHSRHFIHRDIKPDNFLIGRGKKMSIVFAIDFGLAKKYRDPRTQSHIPYREGKNLTGTARYASVNTHLGIEQSRRDDLEALGYVLMYFNRGSLPWQGLKATTKKDKYDKIMEKKMSTPIEVLCKQFPFEFITYLNYCRSLRFEDRPDYSYLRRLFKDLFFREGYQYDFIFDWTFLHAERERERQRRSMVNQGAESGNQWRRDASGRDPLGRLPQLEP
# Legend:
# [1] = biological target: T1, CKII substrate RRADDSDDDDD (Calbiochem)
# T1 chain: RRADDSDDDDD
# β-casein (Sigma), P02666 = biological target: T2, β-casein (Sigma), P02666
# T2 chain: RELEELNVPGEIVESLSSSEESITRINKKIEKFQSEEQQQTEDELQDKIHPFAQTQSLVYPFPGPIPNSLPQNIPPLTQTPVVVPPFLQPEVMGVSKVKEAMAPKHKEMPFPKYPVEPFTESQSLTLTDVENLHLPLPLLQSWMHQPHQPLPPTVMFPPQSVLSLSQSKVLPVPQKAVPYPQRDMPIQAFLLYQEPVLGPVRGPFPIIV
# [2] = biological target: T3, CKI phosphopeptide substrate KRRRALS(p)VASLPGL (New England Biolabs)
# T3 chain: KRRRALSVASLPGL
# [3] = biological target: T4, CaM kinase II substrate (281-291) MHKNETVECLK (Calbiochem)
# T4 chain: MHKNETVECLK
# [4] = biological target: T5, partially dephosphorylated α-casein (Sigma), P02662
# T5 chain: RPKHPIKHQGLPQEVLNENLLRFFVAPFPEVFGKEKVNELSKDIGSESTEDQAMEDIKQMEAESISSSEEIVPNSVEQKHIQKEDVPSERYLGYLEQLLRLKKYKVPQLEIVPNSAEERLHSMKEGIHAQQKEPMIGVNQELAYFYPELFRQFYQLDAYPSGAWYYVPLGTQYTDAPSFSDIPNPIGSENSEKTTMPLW
# [5] = biological target: T6, CKI substrate peptide RRKDLHDDEEDEAMSITA (Calbiochem)
# T6 chain: RRKDLHDDEEDEAMSITA
# [6] = biological target: T7, kemptide LRRASLG (Promega)
# T7 chain: LRRASLG
# [7] = biological target: T8, CKI substrate DDDEESITRR (Promega)
# T8 chain: DDDEESITRR
# [8] = biological target: T9, Syntide-2 substrate PLARTLSVAGLPGKK (Calbiochem)
# T9 chain: PLARTLSVAGLPGKK
# [9] = biological target: T10, CKII substrate RRREEETEEE (New England Biolabs)
# T10 chain: RRREEETEEE
Protein,kinase activity with peptide substrate [1],"Km(app) (β-casein (Sigma), P02666) [µM]","Vmax(app) (nmole min^-1 mg^-1) (β-casein (Sigma), P02666)",Km(app) [2] [µM],Vmax(app) (nmole min^-1 mg^-1) [2],kinase activity with peptide substrate [3],Km(app) [4] [µM],Vmax(app) (nmole min^-1 mg^-1) [4],Km(app) [5] [µM],Vmax(app) (nmole min^-1 mg^-1) [5],kinase activity with peptide substrate [6],kinase activity with peptide substrate [7],kinase activity with peptide substrate [8],kinase activity with peptide substrate [9],Vmax relative to the α-casein substrate [2]
B1,failed to show concentration dependent kinase activity,12,16,79,37,failed to show concentration dependent kinase activity,5,12,15,8,failed to show concentration dependent kinase activity,failed to show concentration dependent kinase activity,failed to show concentration dependent kinase activity,failed to show concentration dependent kinase activity,
B2,,,,,,,,,,,,,,,the phosphopeptide yielded a much higher Vmax (2.5× greater activity) than the α-casein substrate
